{
  "source": "patent US8110551B2",
  "about": "(priority 2008, dated 2012)",
  "key": {"Jurkat cells [1]": {"system": "Jurkat cells", "assay_type": "cell-based, human", "settings": "16 hr"}, "CdtB": {"system": "CdtB", "assay": "Effect of phosphatase inhibitors on CdtB-mediated hydrolysis of PI-3,4,5-P3", "assay_type": "biochemical, A. actinomycetemcomitans", "settings": "for reduction of CdtB phosphatase activity: 0.5 μM CdtB, 30 min", "protocol": "CdtB (0.5 μM; triangles) and PTEN (0.1 μM; circles) were incubated with liposomes containing PI-3,4,5-P3 in the presence of varying concentrations of tungstate or orthovanadate for 30 min. Phosphate release was measured using the malachite green binding assay. Results are plotted as phosphate release (nmol/30 min; mean±S.D.) versus inhibitor concentration (mM);\n(§1) Phosphatase activity was assessed by monitoring the dephosphorylation of PI-3,4,5-P3 as described by Maehama et al [Maehama, T., G. Taylor, J. Slama, and J. Dixon. 2000. A sensitive assay for phosphoinositide phosphatases. Analytical Biochemistry 279:248-2501. Briefly, the reaction mixture (20 μl) consisted of 100 mM Tris-HCl (pH 8.0), 10 mM dithiothreitol, 0.5 mM diC16-phosphatidylserine (Avanti), 25 μM PI-3,4,5-P3 (diC16; Echelon) and the indicated amount of CdtB, CdtABC or PTEN (kindly provided by Gregory Taylor). Appropriate amounts of lipid solutions were deposited in 1.5 ml tubes, organic solvent removed, the buffer added and a lipid suspension formed by sonication. For experiments to determine substrate specificity, PI-3,4,5-P3 was replaced by the indicated phosphatidylinositol phosphate (Echelon). Phosphatase assays were carried out at 37° C. for 30 min; the reactions were terminated by the addition of 15 μl of 100 mM N-ethylmaleimide. Inorganic phosphate levels were then measured using a malachite green assay. Malachite green solution (Biomol Green; Biomol) was added to 100 μl of the enzyme reaction mixture and color was developed for 20 min at RT. Absorbance at 650 nm was measured and phosphate release quantified by comparison to inorganic phosphate standards."}, "[2]": {"assay_type": "biochemical"}, "[3]": {"assay": "TLC analysis of product formation after PI-3,4,5-P3 hydrolysis", "assay_type": "biochemical", "settings": "0.5 μM CdtB or 0.1 μM PTEN, FIG. 3 inset", "from_the_text": "Analysis of CdtB-Mediated Product Formation\nInositol lipids were separated by thin layer chromatography. Silica gel G plates were dipped in boric acid (5% in methanol) and then dried. They were then spotted with the lipid samples dissolved in chloroform/methanol/water (1/2/0.1) together with solutions containing the standard inositol lipids phosphatidyl 4,5 bisphosphate, phosphatidyl 3,4 bisphosphate, phosphatidyl 3,5bis phosphate, phosphatidyl 3,4,5 trisphosphate, and phosphatidyl inositol. The plates were eluted with solutions containing propyl acetate/isopropanol/ethanol/ammonia/water (15/45/16/9/35), dried, and sprayed with solution containing CuSO4/H3PO4 (8%/10%), and air dried again. Plates were then heated to 70° C. then to 155° C. to visualize the lipids."}, "[4]": {"assay": "Substrate specificity with phosphoinositides in liposomes", "assay_type": "biochemical", "settings": "0.5 μM CdtB, 0.1 μM PTEN; 30 min; liposomes with phosphatidylserine carrier; FIG. 3", "protocol": "as §1, with “Malachite green solution (Biomol Green; Biomol) was added to 100 μl of the enzyme reaction mixture and color was developed for 20 min at RT.” left out\nCdtB substrate specificity was assessed using several different phosphoinositides (PI). […] In order to determine whether CdtB is a 3- or 5-phosphatase, product formation was assessed using thin layer chromatography. […]"}, "supercoiled pUC19 DNA": {"system": "supercoiled pUC19 DNA", "assay_type": "biochemical"}, "[5]": {"assay": "Dephosphorylation of inositol phosphates", "assay_type": "biochemical"}, "Jurkat cells [6]": {"system": "Jurkat cells", "assay_type": "cell-based, human"}, "[7]": {"assay": "Protein phosphatase activity with synthetic substrate", "assay_type": "biochemical", "settings": "synthetic substrate pNPP"}, "[8]": {"settings": "30 min, read-out: ED0.5 [concentration required to catalyze 0.5 nmol phosphate release]"}},
  "note": "Read-outs that look alike come from different tables or passages of the source.",
  "data": [
    {"molecule": "O=c1cc(N2CCOCC2)oc2c(-c3ccccc3)cccc12", "note": "[LY290004]", "values": [
      {"measurement": "Cdt-induced accumulation of G2 cells after pre-treatment", "setting": "Jurkat cells [1]", "result": 22.0, "unit": "%"}
    ]},
    {"molecule": "[O]=[Mo](=[O])([O-])[O-]", "note": "[molybdate]", "values": [
      {"measurement": "inhibition of CdtB (in words)", "setting": "CdtB", "result": "failed to inhibit"}
    ]},
    {"molecule": "[O]=[V]([O-])([O-])[O-]", "note": "[orthovanadate]", "values": [
      {"measurement": "reduction of CdtB phosphatase activity", "setting": "CdtB; 1 mM inhibitor", "result": 10, "unit": "%"},
      {"measurement": "reduction of CdtB phosphatase activity", "setting": "CdtB; 10 mM inhibitor", "result": 85, "unit": "%"}
    ]},
    {"molecule": "[O]=[W](=[O])([O-])[O-]", "note": "[tungstate]", "values": [
      {"measurement": "reduction of CdtB phosphatase activity", "setting": "CdtB; 1 mM inhibitor", "result": 15, "unit": "%"},
      {"measurement": "reduction of CdtB phosphatase activity", "setting": "CdtB; 10 mM inhibitor", "result": 70, "unit": "%"}
    ]},
    {"molecule": "COC[C@H]1OC(=O)c2coc3c2[C@@]1(C)C1=C(C3=O)[C@@H]2CCC(=O)[C@@]2(C)C[C@H]1OC(C)=O", "note": "[wortmannin]", "values": [
      {"measurement": "Cdt-induced accumulation of G2 cells after pre-treatment", "setting": "Jurkat cells [1]", "result": 35, "unit": "%"}
    ]},
    {"molecule": "PTEN: Tumor suppressor phosphatase (phosphatase and tensin homolog deleted on chromosome ten), used for comparison [reference compound]", "values": [
      {"measurement": "Km", "setting": "[2]", "result": 159, "unit": "µM"},
      {"measurement": "EC50", "setting": "[2]; [8]", "result": 50, "unit": "nM"},
      {"measurement": "product formed from PI-3,4,5-P3", "setting": "[3]", "result": "PI-(4,5)-P2"},
      {"measurement": "substrate specificity (phosphate release with phosphatidylinositol phosphates)", "setting": "[4]", "result": "substrate specificity for PI-(3,4,5)-P3 identical to CdtB"}
    ]},
    {"molecule": "CdtB: Active B subunit of cytolethal distending toxin, SEQ ID NO: 3, expressed from pGEMCdtB (protein, Actinobacillus actinomycetemcomitans) NLSDFKVATWNLQGSSAVNESKWNINVRQLLSGEQGADILMVQEAGSLPSSAVRTSRVIQHGGTPIEEYTWNLGTRSRPNMVYIYYSRLDVGANRVNLAIVSRRQADEAFIVHSDSSVLQSRPAVGIRIGTDVFFTVHALATGGSDAVSLIRNIFTTFTSSPSSPERRGYSWMVVGDFNRAPVNLEAALRQEPAVSENTIIIAPTEPTHRSGNILDYAILHDAHLPRREQARERIGASLMLNQLRSQITSDHFPVSFVRDR", "values": [
      {"measurement": "DNase Activity (% CdtB^wt)", "setting": "supercoiled pUC19 DNA", "result": 100, "unit": "% CdtB^wt"},
      {"measurement": "DNase activity (in words)", "setting": "supercoiled pUC19 DNA; 2 hrs at 37° C.", "result": "detectable nuclease activity although it was less than five orders of magnitude of that observed with bovine DNase I"},
      {"measurement": "dephosphorylation of inositol triphosphate or inositol tetrakisphosphate", "setting": "[5]", "result": "unable to dephosphorylate"},
      {"measurement": "toxicity (G2 cell cycle arrest), dose response", "setting": "Jurkat cells [6]", "result": "comparable activity"},
      {"measurement": "percentage of G2 cells", "setting": "Jurkat cells [6]; 18 hrs", "result": 54.8, "unit": "%"},
      {"measurement": "Km", "setting": "[2]", "result": 124, "unit": "µM"},
      {"measurement": "PIP3 phosphatase activity (% CdtB^wt)", "setting": "[2]", "result": 100, "unit": "% CdtB^wt"},
      {"measurement": "EC50", "setting": "[2]; [8]", "result": 500, "unit": "nM"},
      {"measurement": "EC50", "setting": "[2]; read-out: ED0.5", "result": 300, "unit": "nM"},
      {"measurement": "protein phosphatase activity", "setting": "[7]", "result": "did not exhibit detectable protein phosphatase activity"},
      {"measurement": "product formed from PI-3,4,5-P3", "setting": "[3]", "result": "PI-(3,4)-P2"},
      {"measurement": "substrate specificity (phosphate release with phosphatidylinositol phosphates)", "setting": "[4]", "result": "only occurred in the presence of PI-3,4,5-P3"}
    ]}
  ]
}
